# Results as given in the supplement of paper PMC10126150.
# ± gives the standard deviation of the averaged measurements.
# Test system: ATP
# Experiment: switch fluorescence ratio, 500 uM ATP over buffer (Cy3 cluster intensity, sum of 5 cycles each) (fold (ratio)); higher = stronger signal-on switching upon ATP binding; sequences stand for … in TCGTCGGCAGCGTCAGATGTGTATAAGAGACAGTTTTTTTTTTTTTTTTTTTTTTTTT…TC
# Conditions: aptamer strand: ATP DNA aptamer (quencher-CACCTGGGGGAGTATTGCGGAGGAAGG + anchor), 100 nM annealed; ATP concentration: 500 uM
# In short: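 For every switch-domain sequence, the fluorescence ratio is the mean of per-cluster values, each being summed target-cycle Cy3 intensity over summed buffer-cycle Cy3 intensity. Clusters outside 100-1000 RFU were excluded. On a modified Illumina MiSeq flow-cell, the Cy3-labelled switching-strand clusters were annealed to 100 nM quencher-labelled ATP aptamer, imaged in selection buffer and then after 15 min with 500 uM ATP at 22 °C. Five such cycles were run, with NaOH stripping and re-annealing between them.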
# 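Note: ATP exposure 15 min at 22 °C before imaging.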
sequence,measurement,value
TCCTGGCTGT,switch fluorescence ratio,1.09 ± 0.027
TCCTGGCTTT,switch fluorescence ratio,1.26 ± 0.29
TCCTGGTGAT,switch fluorescence ratio,1.22 ± 0.12
TCCTGTCTTT,switch fluorescence ratio,1.01 ± 0.014
TCCTGTGGGA,switch fluorescence ratio,1.007 ± 0.0053
TCCTTCACCT,switch fluorescence ratio,1.24 ± 0.069
TCCTTGCTGT,switch fluorescence ratio,1.12 ± 0.095
TCCTTGTAAG,switch fluorescence ratio,1.01 ± 0.03
TCCTTGTAGT,switch fluorescence ratio,1.11 ± 0.17
TCCTTTATTG,switch fluorescence ratio,1.01 ± 0.021
TCCTTTTAGA,switch fluorescence ratio,1.01 ± 0.011
TCCTTTTGG,switch fluorescence ratio,0.996 ± 0.044
TCGAAATAGG,switch fluorescence ratio,1.005 ± 0.0023
TCGAAATCGG,switch fluorescence ratio,1.03 ± 0.021
TCGAAGAAGT,switch fluorescence ratio,0.997 ± 0.016
TCGAAGCCGG,switch fluorescence ratio,0.9774 ± 0.0061
TCGAAGGCAT,switch fluorescence ratio,1.06 ± 0.03
TCGAAGGGGT,switch fluorescence ratio,0.982 ± 0.013
TCGAAGTCAG,switch fluorescence ratio,1.06 ± 0.044
TCGAATAACT,switch fluorescence ratio,2.2 ± 1.7
TCGAATATCA,switch fluorescence ratio,1.007 ± 0.0097
TCGAATTTGT,switch fluorescence ratio,0.99 ± 0.03
TCGACAAAGG,switch fluorescence ratio,1.07 ± 0.021
TCGACATGGT,switch fluorescence ratio,0.995 ± 0.041
TCGACCATCG,switch fluorescence ratio,0.974 ± 0.033
TCGACCTTCT,switch fluorescence ratio,1.77 ± 0.17
TCGACGATTT,switch fluorescence ratio,1.23 ± 0.26
TCGACGGGGG,switch fluorescence ratio,1.06 ± 0.081
TCGAGACAGG,switch fluorescence ratio,1 ± 0.027
TCGAGAGTAG,switch fluorescence ratio,0.948 ± 0.016
TCGAGATGTA,switch fluorescence ratio,1.03 ± 0.067
TCGAGATTAA,switch fluorescence ratio,1.01 ± 0.024
TCGAGCAGTG,switch fluorescence ratio,1.06 ± 0.013
TCGAGCCGAA,switch fluorescence ratio,1.04 ± 0.019
TCGAGGAGTT,switch fluorescence ratio,1.012 ± 0.01
TCGAGGCTGT,switch fluorescence ratio,1.18 ± 0.05
TCGAGGGAAG,switch fluorescence ratio,0.998 ± 0.023
TCGAGGGTCT,switch fluorescence ratio,1.023 ± 0.0083
TCGAGTATCG,switch fluorescence ratio,1.02 ± 0.044
TCGAGTCGGT,switch fluorescence ratio,1.02 ± 0.034
TCGAGTTGGT,switch fluorescence ratio,1.01 ± 0.0018
TCGAGTTGTT,switch fluorescence ratio,0.988 ± 0.021
TCGAGTTTGC,switch fluorescence ratio,0.931 ± 0.027
TCGATAAATG,switch fluorescence ratio,1.06 ± 0.033
TCGATAATTT,switch fluorescence ratio,0.986 ± 0.022
TCGATCTTGG,switch fluorescence ratio,0.988 ± 0.011
TCGATGCTAG,switch fluorescence ratio,1.03 ± 0.065
TCGATGGTTT,switch fluorescence ratio,1.013 ± 0.01
TCGATTCAGT,switch fluorescence ratio,0.9804 ± 0.0054
TCGATTTGGC,switch fluorescence ratio,1 ± 0.045
TCGCAGTTTC,switch fluorescence ratio,1.7002 ± 0.00038
TCGCATTGGT,switch fluorescence ratio,1.24 ± 0.037
TCGCCCGCGA,switch fluorescence ratio,1.51 ± 0.063
TCGCGAAATG,switch fluorescence ratio,0.968 ± 0.025
TCGCGCGGGT,switch fluorescence ratio,0.9887 ± 0.008
TCGCGGTTAT,switch fluorescence ratio,1.06 ± 0.029
TCGCGTGTTG,switch fluorescence ratio,1.017 ± 0.0032
TCGCGTTGTG,switch fluorescence ratio,1.02 ± 0.034
TCGCTGCGGA,switch fluorescence ratio,1.01 ± 0.018
TCGCTGCTTG,switch fluorescence ratio,1.065 ± 0.0074
TCGCTTATCG,switch fluorescence ratio,1.02 ± 0.072
TCGCTTGGGA,switch fluorescence ratio,1.03 ± 0.017
TCGCTTTTGG,switch fluorescence ratio,1.02 ± 0.033
TCGGAAAAAT,switch fluorescence ratio,0.966 ± 0.0099
TCGGAAGGGT,switch fluorescence ratio,0.9933 ± 0.0075
TCGGAATGTG,switch fluorescence ratio,1.01 ± 0.045
TCGGAATGTT,switch fluorescence ratio,1.02 ± 0.025
TCGGAATTGC,switch fluorescence ratio,1.56 ± 0.33
TCGGACACAT,switch fluorescence ratio,1.07 ± 0.03
TCGGACATGG,switch fluorescence ratio,1.015 ± 0.0082
TCGGACGGGC,switch fluorescence ratio,1.26 ± 0.18
TCGGACTCGT,switch fluorescence ratio,1.03 ± 0.044
TCGGAGACTC,switch fluorescence ratio,1.05 ± 0.022
TCGGAGATCG,switch fluorescence ratio,0.9443 ± 0.001
TCGGAGCTTG,switch fluorescence ratio,1.16 ± 0.064
TCGGAGGAGC,switch fluorescence ratio,1.05 ± 0.026
TCGGAGGCTT,switch fluorescence ratio,1 ± 0.027
TCGGAGGGTT,switch fluorescence ratio,1.016 ± 0.0052
TCGGAGTGGG,switch fluorescence ratio,1.03 ± 0.043
TCGGATTCGA,switch fluorescence ratio,1.015 ± 0.0092
TCGGATTGGG,switch fluorescence ratio,0.993 ± 0.033
TCGGCAATTT,switch fluorescence ratio,1.4 ± 0.34
TCGGCAGCGG,switch fluorescence ratio,1.01 ± 0.034
TCGGCAGGGA,switch fluorescence ratio,1.01 ± 0.051
TCGGCCACAG,switch fluorescence ratio,1.05 ± 0.02
TCGGCCAGAG,switch fluorescence ratio,1.01 ± 0.012
TCGGCGAAAA,switch fluorescence ratio,1.84 ± 1.1
TCGGCGGCGG,switch fluorescence ratio,0.974 ± 0.027
TCGGCGGGCG,switch fluorescence ratio,0.986 ± 0.043
TCGGCGTAAG,switch fluorescence ratio,0.998 ± 0.03
TCGGCGTTGG,switch fluorescence ratio,1.03 ± 0.026
TCGGCTGTAT,switch fluorescence ratio,1.69 ± 0.94
TCGGCTTAGC,switch fluorescence ratio,0.981 ± 0.012
TCGGCTTCCT,switch fluorescence ratio,1.27 ± 0.031
TCGGGAAGGG,switch fluorescence ratio,0.991 ± 0.014
TCGGGAATTT,switch fluorescence ratio,1.067 ± 0.0091
TCGGGACATA,switch fluorescence ratio,1.02 ± 0.041
TCGGGACGTT,switch fluorescence ratio,1.02 ± 0.044
TCGGGAGAAG,switch fluorescence ratio,1.01 ± 0.013
TCGGGAGCGT,switch fluorescence ratio,1.01 ± 0.033
TCGGGAGTTG,switch fluorescence ratio,0.952 ± 0.024
TCGGGATTGA,switch fluorescence ratio,0.98 ± 0.013
TCGGGATTTT,switch fluorescence ratio,0.997 ± 0.041
TCGGGCAGTG,switch fluorescence ratio,0.99 ± 0.03
TCGGGCGCAT,switch fluorescence ratio,1.27 ± 0.026
TCGGGCGG,switch fluorescence ratio,1.03 ± 0.014
TCGGGCTTTT,switch fluorescence ratio,0.969 ± 0.026
TCGGGGAAAT,switch fluorescence ratio,1.01 ± 0.023
TCGGGGAATT,switch fluorescence ratio,0.989 ± 0.032
TCGGGGCCGC,switch fluorescence ratio,0.981 ± 0.11
TCGGGGCCTT,switch fluorescence ratio,0.998 ± 0.033
TCGGGGCTGG,switch fluorescence ratio,1.02 ± 0.029
TCGGGGGCCT,switch fluorescence ratio,0.959 ± 0.022
TCGGGGGGAC,switch fluorescence ratio,1.03 ± 0.036
TCGGGGGGCG,switch fluorescence ratio,0.977 ± 0.034
TCGGGGGGCT,switch fluorescence ratio,1.06 ± 0.048
TCGGGGGGGT,switch fluorescence ratio,1.06 ± 0.19
TCGGGGGGTG,switch fluorescence ratio,1.01 ± 0.041
TCGGGGTATC,switch fluorescence ratio,1.03 ± 0.0046
TCGGGGTATG,switch fluorescence ratio,0.982 ± 0.014
TCGGGGTGTT,switch fluorescence ratio,1.001 ± 0.0096
TCGGGTAAAG,switch fluorescence ratio,0.9947 ± 0.0053
TCGGGTATGT,switch fluorescence ratio,0.977 ± 0.029
TCGGGTCTAC,switch fluorescence ratio,1.01 ± 0.018
TCGGGTGGTT,switch fluorescence ratio,1 ± 0.016
TCGGTAATAT,switch fluorescence ratio,1.08 ± 0.16
TCGGTAGGTG,switch fluorescence ratio,1.028 ± 0.0052
TCGGTCAGTT,switch fluorescence ratio,0.971 ± 0.012
TCGGTCCCAG,switch fluorescence ratio,1.03 ± 0.014
TCGGTGGCGT,switch fluorescence ratio,1.02 ± 0.048
TCGGTGGGGA,switch fluorescence ratio,0.992 ± 0.087
TCGGTGGGGG,switch fluorescence ratio,1.01 ± 0.051
TCGGTGGGTA,switch fluorescence ratio,0.983 ± 0.013
TCGGTGTTTC,switch fluorescence ratio,0.962 ± 0.017
TCGGTTAAGT,switch fluorescence ratio,1.02 ± 0.031
TCGGTTGAAC,switch fluorescence ratio,1.01 ± 0.031
TCGGTTGAGG,switch fluorescence ratio,0.983 ± 0.025
TCGGTTGCTA,switch fluorescence ratio,1.05 ± 0.023
TCGGTTGTG,switch fluorescence ratio,0.9644 ± 0.0092
TCGGTTTAGC,switch fluorescence ratio,1.02 ± 0.035
TCGGTTTTAC,switch fluorescence ratio,1.033 ± 0.0061
TCGTAAATTT,switch fluorescence ratio,0.973 ± 0.055
TCGTACTGTG,switch fluorescence ratio,1.02 ± 0.1
TCGTAGAGGA,switch fluorescence ratio,0.995 ± 0.032
TCGTAGAGGG,switch fluorescence ratio,1.008 ± 0.0013
TCGTAGCAGG,switch fluorescence ratio,1.12 ± 0.14
TCGTATGGGT,switch fluorescence ratio,1 ± 0.045
TCGTCGCAGG,switch fluorescence ratio,1.1 ± 0.058
TCGTCGTGTG,switch fluorescence ratio,1 ± 0.028
TCGTCGTTTG,switch fluorescence ratio,0.991 ± 0.01
TCGTCTTTTG,switch fluorescence ratio,0.997 ± 0.015
TCGTGAGCGG,switch fluorescence ratio,0.996 ± 0.034
TCGTGATTTT,switch fluorescence ratio,1 ± 0.035
TCGTGCACGA,switch fluorescence ratio,1.018 ± 0.0062
TCGTGCTTTG,switch fluorescence ratio,1.0145 ± 0.00045
TCGTGGGGAG,switch fluorescence ratio,0.982 ± 0.015
TCGTGGGGTA,switch fluorescence ratio,0.9761 ± 0.007
